Test results taken from article PMC7831362 (mAbs, 2021).

What was measured:
[1] = biological target: natively expressed mouse PD-L1 on mouse tumor cells (Mus musculus (endogenous in Renca cells), UniProt Q9EP73); experiment: flow cytometry on cells
[2] = biological target: recombinant mouse PD-L1–human Fc chimeric fusion protein (mouse, UniProt Q9EP73 19-239, conjugated with europium cryptate trisbipyridine–N-hydroxysuccinimide); experiment: AlphaScreen or HTRF
recombinant mouse PD-L1–human Fc chimeric fusion protein, sequence (Q9EP73 19-239, change not shown): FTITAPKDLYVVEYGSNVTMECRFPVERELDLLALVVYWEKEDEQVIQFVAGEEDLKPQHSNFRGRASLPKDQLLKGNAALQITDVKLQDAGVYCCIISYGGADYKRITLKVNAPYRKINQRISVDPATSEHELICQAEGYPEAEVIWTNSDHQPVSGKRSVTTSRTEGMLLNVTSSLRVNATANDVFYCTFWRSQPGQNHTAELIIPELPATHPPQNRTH

natively expressed mouse PD-L1 on mouse tumor cells, sequence (Q9EP73 19-290): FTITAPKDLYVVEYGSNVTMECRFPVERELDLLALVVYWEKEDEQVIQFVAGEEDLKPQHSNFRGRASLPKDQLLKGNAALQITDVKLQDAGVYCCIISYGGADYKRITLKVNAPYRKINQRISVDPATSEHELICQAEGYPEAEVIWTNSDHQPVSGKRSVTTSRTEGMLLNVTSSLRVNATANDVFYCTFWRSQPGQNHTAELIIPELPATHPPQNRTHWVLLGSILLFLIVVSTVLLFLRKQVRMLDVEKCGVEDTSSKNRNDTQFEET

Row | binding result [1] | binding result [2] | Binder
1 | binds |  | anti-mouse PD-L1 hybridoma clone 17 (antibody, V domains shown) VH: EVQLVESGGGLVQPGASLKLSCVASGFTFSDYWMSWVRQNPGKTMEWIGDIKYDGSYTDYAPSLKNRFTISRDNAKSTLYLQMSNVRSEDTATYYCTRATGRRDGYYPTDYFDYWGQGVMVTVSS VL: DIVLTQSPALAVSLGQRATISCWASQSVSISRYNLMHWYQQKPGQQPKLLIYRASNLAGIPPRFSGSGSGTDFTLTINPVQADDIATYYCQQSRESPNTFGAGTKLELK
2 |  | binds | recombinant mouse B7-1/CD80 Fc chimera His-tag protein (Fc fusion, UniProt Q00609 38-246, looked up, conjugated with DyLight-650) VDEQLSKSVKDKVLLPCRYNSPHEDESEDRIYWQKHDKVVLSVIAGKLKVWPEYKNRTLYDNTTYSLIILGLVLSDRGTYSCVVQKKERGTYEVKHLALVKLSIKADFSTPNITESGNPSADTKRITCFASGGFPKPRFSWLENGRELPGINTTISQDPESELYTISSQLDFNTTRNHTIKCLIKYGDAHVSEDFTWEKPPEDPPDSKN
